Source: patent US20210380994A1, “LACTOCOCCUS LACTIS EXPRESSION SYSTEM FOR DELIVERING PROTEINS EFFICACIOUS FOR THE TREATMENT OF EPITHELIAL BARRIER FUNCTION DISORDERS” (Second Genome, Inc., priority 2018, published 2021)
Like-named read-outs stand apart in the source and are kept apart here.

Assays:
[1] = PTM of SG-11 versus SG-11V5 after storage, LC-MS/MS (Example 10); assay type: physicochemical
Procedure: For this analysis, PTMs of wildtype SG-11 (SEQ ID NO:7) and SG-11V5 (SEQ ID NO:19) were compared. In the first analysis (results provided in Table 10 below), the proteins were stored at a concentration of 1 mg/ml in Buffer 1 (50 mM NaPO4, pH 8, 150 mM NaCl, 10% glycerol) and stored for 2 weeks at either 4° C. or 40° C. The proteins were then treated with DTT and Iodoacetamide (IAA), followed by trypsin digestion. The digested samples were then analyzed by Waters ACQUITY UPLC couples to Xevo G2-XS QTOF mass spectrometer using a Protein BEH C18 column.
In a second analysis, the SG-11 (SEQ ID NO:7) and SG-11V5 (SEQ ID NO:19) proteins were each stored at 40° C. in a variety of buffers. The storage buffer used in this experiment was 100 mM NaPO4, pH7, with 10% sorbitol (+Sor) or without 10% sorbitol (−Sor) and with 10% glycerol (+Gly) or without 10% glycerol (−Gly) as indicated in Table 11. […] There were also differences in levels of N137 deamidation for the two proteins with the presence of at least glycerol and also the presence of both sorbitol and glycerol resulting in large decreases in N137 deamidation.

[2] = post-translational modification (PTM) analysis by LC/MS/MS peptide mapping; assay type: physicochemical; conditions: non-stress
Procedure: Studies were performed to identify residues of SG-11 particularly susceptible to PTMs using LC/MS/MS. The analysis was performed by LakePharma (Belmont, Calif.) to 1) confirm the amino acid sequence of SG11 (SEQ ID NO-9), and 2) determine any post-translational modification which could lead to reduced biological activity and immunogenicity, particularly deamidation and oxidation.
For peptide mapping and PTM analysis, samples were treated with DTT and IAA, followed by trypsin digestion. The digested sample was then analyzed by Waters ACQUITY UPLC coupled to Xevo G2-XS QTOF mass spectrometer using a Protein BEH C18 column.

[3] = 1 mg/ml in Buffer 1, 2 weeks at 4° C.
[4] = 1 mg/ml in Buffer 1, 2 weeks at 40° C.
[5] = 40° C., 100 mM NaPO4, pH7, + Sor − Gly
[6] = 40° C., 100 mM NaPO4, pH7, + Sor − Sly (so in the source)
[7] = 40° C., 100 mM NaPO4, pH7, − Sor − Gly (first column)
[8] = 40° C., 100 mM NaPO4, pH7, − Sor − Gly (third column as printed)
[9] = normalized to corresponding precursor
[10] = normalized to total peptide ion intensity
[11] = 40° C. for two weeks, artificial carbamidomethylation by iodoacetamide

B1: SG-11: Roseburia hominis protein comprising SEQ ID NO:3; tested as SEQ ID NO:5, SEQ ID NO:7 or FLAG-tagged SEQ ID NO:9 (protein, listed as Rosburia hominis)
chain: LEGEESVVYVGKKGVIASLDVETLDQSYYDETELKSYVDAEVEDYTAEHGKNAVKVESLKVEDGVAKLKMKYKTPEDYTAFNGIELYQGKVVASLAAGYVYDGEFARVEEGKVVGAATKQDIYSEDDLKVAIIRANTDVKVDGEICYVSCQNVKLTGKDSVSIRDGYYLETGSVTASVDVTGQESVGTEQLSGTEQMEMTGEPVNADDTEQTEAAAGDGSFETDVYTFIVYK
cleavage by trypsin (SDS-PAGE) (trypsin): a predominant band is generated in the presence of trypsin | Oxidation of M1 ([1]; 1 mg/ml in Buffer 1 (50 mM NaPO4, pH 8, 150 mM NaCl, 10% glycerol), 2 weeks at 4° C.): 8.9% | Deamidation of N83 [1, 3]: 19.4% | Deamidation of N137 [1, 3]: 1.0% | Deamidation of N83 [1, 4]: 98.1% | Deamidation of N137 [1, 4]: 0.9% | Oxidation of M1 [1, 4]: 12.5% | Deamidation of N83 [1, 5]: 93.9% | Deamidation of N137 [1, 5]: 2.6% | Oxidation of M1 [1, 5]: 12.1% | Deamidation of N83 [1, 6]: 87.4% | Deamidation of N137 [1, 6]: 2.5% | Oxidation of M1 [1, 6]: 27.8% | Deamidation of N83 [1, 7]: 98.1% | Deamidation of N137 [1, 7]: 0.9% | Oxidation of M1 [1, 7]: 20% | Deamidation of N83 [1, 8]: 96.2% | Deamidation of N137 [1, 8]: 3.0% | Oxidation of M1 [1, 8]: 38.6% | Deamidation N83 (peptide TPEDYTAFNGIELYQGK), % peptide [2, 9]: 3.77% | Deamidation N137 (peptide ANTDVK), % peptide [2, 9]: 1.03% | Deamidation N153 (peptide VDGEICYVSCQNVK), % peptide [2, 9]: 0.2% | Deamidation N53 (peptide NAVK), % peptide ([2]; normalized to total intensity of corresponding precursor with or without modification): 7.84% | Deamidation N53 (peptide NAVK), % total ion [2, 10]: 0.01% | Deamidation N83 (peptide TPEDYTAFNGIELYQGK), % total ion [2, 10]: 0.25% | Deamidation N137 (peptide ANTDVK), % total ion [2, 10]: 0.25% | Deamidation N153 (peptide VDGEICYVSCQNVK), % total ion [2, 10]: 0.01% | Oxidation M1 (peptide MLEGEESVVYVGK), % total ion [2, 10]: <0.01% | aggregates (SEC-HPLC) (4° C., 2 weeks, 1 mg/ml): low level of aggregates | aggregation (SEC-HPLC) (37° C., 2 weeks, 1 mg/ml): major aggregation occurred | Deamdation N206, GYYLETGSV...TFIVYK (SEQ ID NO: 29) (40° C. for two weeks): 3.62% | Deamidation N83, TPEDYTAFNGIELYQGX (SEQ ID NO: 26) (40° C. for two weeks): 99.88% | Deamidation N83 Deamidation Q89, TPEDYTAFNGIELYQGX (SEQ ID NO: 26) (40° C. for two weeks): 0.12% | Deamidation N137, ANTDVK (SEQ ID NO: 27) (40° C. for two weeks): 14.61% | Deamidation N153, VDGEICYVSCQNVK (SEQ ID NO: 18) (40° C. for two weeks): 0% | Deamidation Q30, GVIASLDVETLDQSYYDETELK (SEQ ID NO: 25) (40° C. for two weeks): 0.09% | Deamidation Q152 Deamidation N153 Carbamidomethy C151, VDGEICYVSCQNVK (SEQ ID NO: 18) (40° C. for two weeks): 3.1% | No modification, ANTDVK (SEQ ID NO: 27) (40° C. for two weeks): 85.39% | No modification, GVIASLDVETLDQSYYDETELK (SEQ ID NO: 25) (40° C. for two weeks): 99.91% | No modification, GYYLETGSVTASVDVTGQESVGTEQLSGTEQMEMTGEPVNADDTEQTEAAAGDGSFETDVYTFIVYK (SEQ ID NO: 29) (40° C. for two weeks): 96.38% | No modification, MLEGEESVVYVGK (SEQ ID NO: 24) (40° C. for two weeks): 99.82% | No modification, TPEDYTAFNGIELYQGX (SEQ ID NO: 26) (40° C. for two weeks): 0% | No modification, VDGEICYVSCQNVK (SEQ ID NO: 18) (40° C. for two weeks): 44.85% | Oxidation M2.00, GYYLETGSV...TFIVYK (SEQ ID NO: 29) (40° C. for two weeks): 0% | Oxidation M198, GYYLETGSV...TFIVYK (SEQ ID NO: 29) (40° C. for two weeks): 0% | Oxidation of M, MLEGEESVVYVGK (SEQ ID NO: 24) (40° C. for two weeks): 0.18% | Carbamidomethy C147, VDGEICYVSCQNVK (SEQ ID NO: 18) [11]: 33.59% | Carbamidomethy C151, VDGEICYVSCQNVK (SEQ ID NO: 18) [11]: 18.45% | Observation of solution (Freeze and thaw (6 cycles) −80° C. to room temperature): clear | Observation of solution (Mechanical stress: 350 rpm shake, 4° C., 24 hr): clear | Deamdation N206, GYYLETGSV...TFIVYK (SEQ ID NO: 29) (No treatment): 0% | Deamidation N53, NAVK (SEQ ID NO 30) (No treatment): 7.84% | Deamidation N83, TPEDYTAFNGIELYQGX (SEQ ID NO: 26) (No treatment): 17.43% | Deamidation N83 Deamidation Q89, TPEDYTAFNGIELYQGX (SEQ ID NO: 26) (No treatment): 0%
